According to patent US20190241648A1 (STATEN BIOTECHNOLOGY B V, published 2019):
Ends that are not written are not given here.

Legend:
Assay in all cases: peptide microarray
[1] = biological target: T1, ApoC3 peptide … A39S (human, not fully specified (bridges); also: cyclic constrained)
T1 peptide: SRGWVTDGFSSLK
How it was run: (§1)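 Peptide microarrays of ApoC3-derived peptides incubated with antibody samples, then stained with goat anti-human IgG (Fc) DyLight680 (1:5000) and anti-HA DyLight800 (1:2000) control. Read-out by fluorescence scanning at intensities 7/7 (red/green); a secondary-only pre-stain checked background, HA frame peptides served as quality control.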

[2] = biological target: T2, ApoC3 peptide … A39W (human, not fully specified (bridges); also: cyclic constrained)
T2 peptide: WRGWVTDGFSSLK
How it was run: as §1

[3] = biological target: T3, ApoC3 peptide … T44Y (human, not fully specified (bridges); also: cyclic constrained)
T3 peptide: ARGWVYDGFSSLK
How it was run: as §1

[4] = biological target: T4, ApoC3 peptide … K51P (human, not fully specified; cyclic constrained)
T4 peptide: ARGWVTDGFSSLP
How it was run: as §1

[5] = biological target: T5, ApoC3 peptide … L50S (human, not fully specified (bridges); also: cyclic constrained)
T5 peptide: ARGWVTDGFSSSK
How it was run: as §1

[6] = biological target: T6, ApoC3 peptide … F47V (human, also: cyclic constrained)
T6 peptide: ARGWVTDGVSSLK
How it was run: as §1

[7] = biological target: T7, ApoC3 peptide … R40I (human, not fully specified (bridges); also: cyclic constrained)
T7 peptide: AIGWVTDGFSSLK
How it was run: as §1

[8] = biological target: T8, ApoC3 peptide … S49I (human, cyclic constrained)
T8 peptide: ARGWVTDGFSILK
How it was run: as §1

[9] = biological target: T9, ApoC3 peptide … R40G (human, not fully specified (bridges); also: cyclic constrained)
T9 peptide: AGGWVTDGFSSLK
How it was run: as §1

[10] = biological target: T10, ApoC3 peptide … G41L (human, also: cyclic constrained)
T10 peptide: ARLWVTDGFSSLK
How it was run: as §1

[11] = biological target: T11, ApoC3 peptide … R40S (human, not fully specified (bridges); also: cyclic constrained)
T11 peptide: ASGWVTDGFSSLK
How it was run: as §1

[12] = biological target: T12, ApoC3 peptide … R40P (human, not fully specified (bridges); also: cyclic constrained)
T12 peptide: APGWVTDGFSSLK
How it was run: as §1

[13] = biological target: T13, ApoC3 peptide … G46I (human, not fully specified (bridges); also: cyclic constrained)
T13 peptide: ARGWVTDIFSSLK
How it was run: as §1

[14] = biological target: T14, ApoC3 peptide … R40C (human, not fully specified (bridges); also: cyclic constrained)
T14 peptide: ACGWVTDGFSSLK
How it was run: as §1

[15] = biological target: T15, ApoC3 peptide … L50D (human, not fully specified; cyclic constrained)
T15 peptide: ARGWVTDGFSSDK
How it was run: as §1

[16] = biological target: T16, ApoC3 peptide … T44E (human, not fully specified (bridges); also: cyclic constrained)
T16 peptide: ARGWVEDGFSSLK
How it was run: as §1

[17] = biological target: T17, ApoC3 peptide … W42Q (human, not fully specified (bridges); also: cyclic constrained)
T17 peptide: ARGQVTDGFSSLK
How it was run: as §1

[18] = biological target: T18, ApoC3 peptide … A39K (human, cyclic constrained)
T18 peptide: KRGWVTDGFSSLK
How it was run: as §1

[19] = biological target: T19, ApoC3 peptide … W42G (human, not fully specified (bridges); also: cyclic constrained)
T19 peptide: ARGGVTDGFSSLK
How it was run: as §1

[20] = biological target: T20, ApoC3 peptide … V43R (human, not fully specified (bridges); also: cyclic constrained)
T20 peptide: ARGWRTDGFSSLK
How it was run: as §1

[21] = biological target: T21, ApoC3 peptide … A39H (human, cyclic constrained)
T21 peptide: HRGWVTDGFSSLK
How it was run: as §1

[22] = biological target: T22, ApoC3 peptide … G41N (human, also: cyclic constrained)
T22 peptide: ARNWVTDGFSSLK
How it was run: as §1

[23] = biological target: T23, ApoC3 peptide … T44F (human, not fully specified (bridges); also: cyclic constrained)
T23 peptide: ARGWVFDGFSSLK
How it was run: as §1

[24] = biological target: T24, ApoC3 peptide … S48Y (human, not fully specified (bridges); also: cyclic constrained)
T24 peptide: ARGWVTDGFYSLK
How it was run: as §1

[25] = biological target: T25, ApoC3 peptide … D45F (human, not fully specified (bridges); also: cyclic constrained)
T25 peptide: ARGWVTFGFSSLK
How it was run: as §1

[26] = biological target: T26, ApoC3 peptide … S49Q (human, cyclic constrained)
T26 peptide: ARGWVTDGFSQLK
How it was run: as §1

[27] = biological target: T27, ApoC3 peptide … D45Y (human, not fully specified (bridges); also: cyclic constrained)
T27 peptide: ARGWVTYGFSSLK
How it was run: as §1

% of binding to wild-type peptide [1]: 81.4%
% of binding to wild-type peptide [2]: 59.4%
% of binding to wild-type peptide [3]: 0%
% of binding to wild-type peptide [4]: 0.24%
% of binding to wild-type peptide [5]: 0%
% of binding to wild-type peptide [6]: 0.06%
% of binding to wild-type peptide [7]: 35.1%
% of binding to wild-type peptide [8]: 0%
% of binding to wild-type peptide [9]: 62.9%
% of binding to wild-type peptide [10]: 6.27%
% of binding to wild-type peptide [11]: 54.7%
% of binding to wild-type peptide [12]: 52.7%
% of binding to wild-type peptide [13]: 0%
% of binding to wild-type peptide [14]: 62.3%
% of binding to wild-type peptide [15]: 0%
% of binding to wild-type peptide [16]: 0%
% of binding to wild-type peptide [17]: 93.1%
% of binding to wild-type peptide [18]: 72.9%
% of binding to wild-type peptide [19]: 107%
% of binding to wild-type peptide [20]: 15.1%
% of binding to wild-type peptide [21]: 69.4%
% of binding to wild-type peptide [22]: 27.5%
% of binding to wild-type peptide [23]: 0%
% of binding to wild-type peptide [24]: 5.83%
% of binding to wild-type peptide [25]: 0%
% of binding to wild-type peptide [26]: 0.33%
% of binding to wild-type peptide [27]: 0%
B1: anti-ApoC3 antibody 14C7 (antibody, V domains shown)
VH: QVQVQESGPGLVKPSQTLSLTCTVSGGSITTNSYYWSWIRQPPGKGLEWMGAIDYSGDTYYSPSLKSRTSISRDTSKNQFTLQLTSVTPEDTAVYYCVSRIPTGEYWGQGTQVTVSS
VL: QTVVTQEPSLSVSPGGTVTLTCGLNSGSVTSSNYPDWYQQTPGQAPRLLIYNTNSRHSGVPSRFSGSISGNKAALTITGAQPEDEADYYCALYMGSDSVVFGGGTHLTVL
notes: it was detected with goat anti-human IgG (Fc); also called mAb 14C7; llama antibody 14C7
